Experimental data: publication PMC9986714

How the values were obtained:
[1] = molecular target: Human cathepsin K (human) (UniProt P43235)
[2] = molecular target: Fasciola hepatica cathepsin L3 (Fasciola hepatica)
[3] = molecular target: Carica papaya papain (Carica papaya) (UniProt P00784)
[4] = molecular target: Human cathepsin V (human) (UniProt O60911)
[5] = molecular target: Bovine cathepsin H (bovine)
[6] = molecular target: Human cathepsin L (human)
Cathepsin S (human) = Cathepsin S (human) (UniProt P25774)
Sequence of Cathepsin S (human) (P25774 115-331): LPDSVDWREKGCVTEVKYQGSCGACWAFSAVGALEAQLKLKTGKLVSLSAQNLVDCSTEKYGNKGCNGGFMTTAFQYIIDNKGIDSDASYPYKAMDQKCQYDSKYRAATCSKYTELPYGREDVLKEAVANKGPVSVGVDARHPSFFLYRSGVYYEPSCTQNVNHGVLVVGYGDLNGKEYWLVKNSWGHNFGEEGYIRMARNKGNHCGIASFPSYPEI

Cathepsin X (human) = Cathepsin X (human) (UniProt Q9UBR2)
Sequence of Cathepsin X (human) (Q9UBR2 62-303): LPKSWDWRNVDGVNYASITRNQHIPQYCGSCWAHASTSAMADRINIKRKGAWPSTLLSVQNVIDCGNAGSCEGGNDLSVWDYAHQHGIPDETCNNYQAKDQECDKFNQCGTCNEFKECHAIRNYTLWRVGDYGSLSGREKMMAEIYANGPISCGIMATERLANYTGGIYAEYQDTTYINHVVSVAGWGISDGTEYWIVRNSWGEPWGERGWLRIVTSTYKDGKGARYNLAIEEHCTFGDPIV

[7] = molecular target: Bovine cathepsin C (bovine)
[8] = molecular target: Fasciola hepatica cathepsin L1 (Fasciola hepatica)
[9] = molecular target: Fasciola hepatica cathepsin L2 (Fasciola hepatica)
Cathepsin F (human) = Cathepsin F (human) (UniProt Q9UBX1)
Sequence of Cathepsin F (human) (Q9UBX1 271-484): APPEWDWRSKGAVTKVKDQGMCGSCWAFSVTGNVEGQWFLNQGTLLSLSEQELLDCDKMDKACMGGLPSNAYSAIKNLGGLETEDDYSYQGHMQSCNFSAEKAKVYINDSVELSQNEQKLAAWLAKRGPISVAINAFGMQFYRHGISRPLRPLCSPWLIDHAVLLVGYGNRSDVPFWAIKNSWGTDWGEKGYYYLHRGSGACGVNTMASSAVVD

Sequence of Human cathepsin K (human) (P43235 115-329): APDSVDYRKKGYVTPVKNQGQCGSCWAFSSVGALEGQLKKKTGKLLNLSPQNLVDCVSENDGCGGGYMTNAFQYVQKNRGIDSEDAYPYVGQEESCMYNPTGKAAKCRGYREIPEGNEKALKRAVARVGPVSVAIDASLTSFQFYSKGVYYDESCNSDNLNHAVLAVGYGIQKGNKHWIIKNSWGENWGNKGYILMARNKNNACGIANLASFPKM
Sequence of Carica papaya papain (Carica papaya) (P00784 134-345): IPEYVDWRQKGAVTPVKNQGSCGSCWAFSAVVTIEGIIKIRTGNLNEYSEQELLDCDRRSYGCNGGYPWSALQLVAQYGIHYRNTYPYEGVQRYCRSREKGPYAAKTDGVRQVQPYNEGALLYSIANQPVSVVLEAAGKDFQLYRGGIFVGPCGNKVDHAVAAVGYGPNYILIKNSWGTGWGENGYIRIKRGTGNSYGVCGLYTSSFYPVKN
Sequence of Human cathepsin V (human) (O60911 114-334): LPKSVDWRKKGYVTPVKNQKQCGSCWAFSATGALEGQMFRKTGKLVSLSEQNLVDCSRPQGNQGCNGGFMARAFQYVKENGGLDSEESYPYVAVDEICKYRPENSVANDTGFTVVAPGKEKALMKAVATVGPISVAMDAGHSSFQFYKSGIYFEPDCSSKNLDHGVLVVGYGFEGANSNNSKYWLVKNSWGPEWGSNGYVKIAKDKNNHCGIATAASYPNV

Fasciola hepatica cystatin-like stefin 2 (FhCyLS-2), recombinant (natural protein)
IC50 of inhibition of protease activity (kinetic assay, 4.3 μM Z-Phe-Arg-AMC, 0.2 nM cathepsin K, 100 mM Na acetate pH 5.5, 37 °C, 15 min preincubation) [1]: 8.6 nM
IC50 of inhibition of protease activity (kinetic assay, 20 μM Z-Gly-Pro-Arg-AMC, 6 nM FhCL3, 50 mM MES pH 5.5, 37 °C, 15 min preincubation) [2]: 18 nM
IC50 of inhibition of protease activity (kinetic assay, 100 μM Z-Phe-Arg-AMC, 0.5 nM papain, 100 mM Na acetate pH 5.5, 37 °C, 15 min preincubation) [3]: 1.1 nM
IC50 of inhibition of protease activity (kinetic assay, 53 μM Z-Phe-Arg-AMC, 0.2 nM cathepsin B, 100 mM Na acetate pH 5.5, 37 °C, 15 min preincubation) (Cathepsin B (human)): 2.1 nM
IC50 of inhibition of protease activity (kinetic assay, 3.6 μM Z-Phe-Arg-AMC, 0.1 nM cathepsin V, 100 mM Na acetate pH 5.5, 37 °C, 15 min preincubation) [4]: 5.9 nM
IC50 of inhibition of protease activity (kinetic assay, 100 μM H-Arg-AMC, 1.9 nM cathepsin H, 50 mM MES pH 6.5, 37 °C, 15 min preincubation) [5]: 2.5 nM
IC50 of inhibition of protease activity (kinetic assay, 2.5 μM Z-Phe-Arg-AMC, 0.2 nM cathepsin L, 100 mM Na acetate pH 5.5, 37 °C, 15 min preincubation) [6]: 0.92 nM
IC50 of inhibition of protease activity (kinetic assay, 17 μM Z-Val-Val-Arg-AMC, 0.1 nM cathepsin S, 50 mM MES pH 6.5, 37 °C, 15 min preincubation) (Cathepsin S (human)): 1.1 nM
IC50 of inhibition of protease activity (kinetic assay, 87 μM Abz-Phe-Arg-Phe(NO2)-OH, 1.2 nM cathepsin X, 100 mM Na acetate pH 5.0, 37 °C, 15 min preincubation) (Cathepsin X (human)): 8400 nM
IC50 of inhibition of protease activity (kinetic assay, 130 μM H-Gly-Arg-AMC, 0.4 nM cathepsin C, 100 mM Na acetate pH 5.5 with 50 mM NaCl, 37 °C, 15 min preincubation) [7]: 66 nM
IC50 of inhibition of protease activity (kinetic assay, 20 μM Z-Phe-Arg-AMC, 2 nM FhCL1, 50 mM MES pH 5.5, 37 °C, 15 min preincubation) [8]: 2.5 nM
IC50 of inhibition of protease activity (kinetic assay, 20 μM Z-Phe-Arg-AMC, 5 nM FhCL2, 50 mM MES pH 6.0, 37 °C, 15 min preincubation) [9]: 10 nM
IC50 of inhibition of protease activity (kinetic assay, 27 μM Z-Phe-Arg-AMC, 1.2 nM cathepsin F, 100 mM Na acetate pH 5.5, 37 °C, 15 min preincubation) (Cathepsin F (human)): 49 nM
